Results published in article PMC8152475 (Biomedicines, 2021).

Columns and labels:
[1] = biological target: T1, unlabeled recombinant HK2 (UniProt P52789 1-917); assay: other fluorescence titration; conditions: both partners purified
T1 sequence (looked up): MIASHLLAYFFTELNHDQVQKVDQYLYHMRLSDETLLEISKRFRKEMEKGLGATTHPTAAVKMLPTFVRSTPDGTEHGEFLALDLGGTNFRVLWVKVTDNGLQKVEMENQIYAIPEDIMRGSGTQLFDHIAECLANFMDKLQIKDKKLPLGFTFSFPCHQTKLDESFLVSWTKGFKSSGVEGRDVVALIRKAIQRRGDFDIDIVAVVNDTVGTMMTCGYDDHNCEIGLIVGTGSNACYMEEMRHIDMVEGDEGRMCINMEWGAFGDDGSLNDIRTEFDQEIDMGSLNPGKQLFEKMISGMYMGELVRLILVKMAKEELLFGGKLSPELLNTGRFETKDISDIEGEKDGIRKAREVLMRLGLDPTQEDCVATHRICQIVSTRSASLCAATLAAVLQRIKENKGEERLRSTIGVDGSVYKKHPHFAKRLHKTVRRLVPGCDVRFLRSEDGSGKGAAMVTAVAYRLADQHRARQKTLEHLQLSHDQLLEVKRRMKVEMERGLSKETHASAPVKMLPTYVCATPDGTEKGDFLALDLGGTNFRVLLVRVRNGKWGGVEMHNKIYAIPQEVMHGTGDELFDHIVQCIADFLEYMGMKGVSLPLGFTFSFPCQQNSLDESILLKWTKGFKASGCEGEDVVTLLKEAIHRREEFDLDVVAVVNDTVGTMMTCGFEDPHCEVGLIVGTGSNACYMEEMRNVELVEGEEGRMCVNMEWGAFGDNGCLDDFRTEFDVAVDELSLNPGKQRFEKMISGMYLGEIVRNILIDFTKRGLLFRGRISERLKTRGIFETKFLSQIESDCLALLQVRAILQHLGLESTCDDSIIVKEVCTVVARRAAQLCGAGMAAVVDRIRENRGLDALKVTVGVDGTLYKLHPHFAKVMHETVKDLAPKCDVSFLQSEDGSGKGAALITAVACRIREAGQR

[2] = biological target: T2, unlabeled recombinant TBK1 (UniProt Q9UHD2 1-729); assay: other fluorescence titration; conditions: both partners purified
T2 sequence (looked up): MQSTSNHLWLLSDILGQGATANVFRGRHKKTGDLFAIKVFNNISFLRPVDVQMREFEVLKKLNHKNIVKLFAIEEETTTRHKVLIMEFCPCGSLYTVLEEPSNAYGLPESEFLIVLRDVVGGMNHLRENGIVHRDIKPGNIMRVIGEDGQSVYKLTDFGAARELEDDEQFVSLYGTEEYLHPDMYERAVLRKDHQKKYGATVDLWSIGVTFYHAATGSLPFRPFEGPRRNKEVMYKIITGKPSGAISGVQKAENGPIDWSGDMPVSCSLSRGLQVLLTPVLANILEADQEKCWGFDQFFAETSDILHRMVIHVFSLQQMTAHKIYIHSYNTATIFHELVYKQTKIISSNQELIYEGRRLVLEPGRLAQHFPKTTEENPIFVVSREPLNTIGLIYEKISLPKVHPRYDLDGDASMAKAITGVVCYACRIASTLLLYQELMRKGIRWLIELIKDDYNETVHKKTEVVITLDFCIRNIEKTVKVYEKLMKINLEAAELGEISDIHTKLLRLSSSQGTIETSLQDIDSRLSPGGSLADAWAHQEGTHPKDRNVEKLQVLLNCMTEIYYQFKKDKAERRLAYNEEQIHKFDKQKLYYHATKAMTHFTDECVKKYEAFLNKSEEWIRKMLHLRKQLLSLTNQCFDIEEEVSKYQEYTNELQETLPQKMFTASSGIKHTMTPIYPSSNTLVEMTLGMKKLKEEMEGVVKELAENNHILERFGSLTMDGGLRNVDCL

[3] = system: host proteins in THP-1 macrophage cell lysates; assay: Co-immunoprecipitation from THP-1 cell lysates with mass spectrometry identification of binding partners; design: species or system human
TBK1 [4] = assay: Endogenous co-immunoprecipitation with TBK1 in THP-1 cells; type: binding, human; conditions: 5 μg mL^−1, IP with αHis-agarose bead
Procedure: (§1) Figure 1 TBK1 and p47phox is bound with MPT63. (A) Identification of TBK1 and p47phox by mass spectrometry analysis in THP-1 cell lysates treated with rMPT63 or rVector. (B) THP-1 cells were stimulated with rMPT63 (5 μg mL^−1) for the indicated times, followed by immunoprecipitation (IP) with αHis-agarose bead and IB with αTBK1, αP-TBK1 (S172), αp47phox, αP-p47phox (S304, 345, 359, and 370), αHis, αActin. […] (E,G) Binding mapping. Schematic diagrams of the structures of MPT63 (upper). At 48 h after transfection with mammalian glutathione S-transferase (GST) or GST-MPT63 and truncated mutant constructs together with Flag-TBK1 or V5-p47phox. 293T cells were used for GST pull down, followed by IB with αFlag or αV5. Cell lysates (WCLs) were used for IB with αFlag or αV5, αGST, and αActin. […]
(§2) Antibody binding was visualized by chemiluminescence (ECL; Millipore) and detected by a Vilber chemiluminescence analyzer (Fusion SL 3; Vilber Lourmat).
(§3) Confocal fluorescence microscopy
(§4) Immunofluorescence analysis was performed as described previously (Koh et al, 2017). […] TRAF6 or His was detected using a 1/100 dilution of the primary Ab for 1 h at 25 °C. […]
(§5) Cell viability relative to non-treated group was measured by MTT assay, as […]

[5] = biological target: T3, unlabeled recombinant p47phox (UniProt P14598 1-390); assay: other fluorescence titration; conditions: both partners purified
T3 sequence (looked up): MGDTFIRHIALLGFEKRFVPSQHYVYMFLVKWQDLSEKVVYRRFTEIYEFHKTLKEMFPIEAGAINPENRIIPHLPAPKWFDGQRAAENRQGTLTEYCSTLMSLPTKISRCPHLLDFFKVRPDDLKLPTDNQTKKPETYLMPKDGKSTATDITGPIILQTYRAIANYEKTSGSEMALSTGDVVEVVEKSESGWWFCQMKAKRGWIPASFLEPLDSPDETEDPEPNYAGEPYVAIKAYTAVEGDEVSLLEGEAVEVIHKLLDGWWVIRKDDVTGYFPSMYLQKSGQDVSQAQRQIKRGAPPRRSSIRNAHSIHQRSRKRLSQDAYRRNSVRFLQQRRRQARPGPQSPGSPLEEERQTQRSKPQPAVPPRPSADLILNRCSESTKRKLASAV

[6] = system: HLA-DR, an MHC class II cell surface receptor; conditions: MPT63 and its epitope; ref [44]; cited from earlier work
macrophages = conditions: conformational switch dependent on the pH of the host; ref [8]; cited from earlier work
p47phox [7] = type: binding
Th1 cell = conditions: MPT63 and its epitope; ref [44]; cited from earlier work
[8] = system: murine peritoneal macrophages; conditions: TNF-α and IL-6 secretion, ref [9]; cited from earlier work
TBK1 [9] = biological target: T4, TBK1 (Homo sapiens, UniProt Q9UHD2); type: binding
T4 sequence (Q9UHD2 1-729): T2 sequence (looked up)

p47phox [10] = assay: Endogenous co-immunoprecipitation with p47phox in THP-1 cells; type: binding, human; conditions: rMPT63 5 μg mL^−1, IP with αHis-agarose bead
Procedure: as §1, §2, §3, §4, §5

B1: fluorescently labelled MPT64 (natural protein)
chain: APKTYCEELKGTDTGQACQIQMSDPAYNINISLPSYYPDQKSLENYIAQTRDKFLSAATSSTPREAPYELNITSATYQSAIPPRGTQAVVLKVYQNAGGTHPTTTYKAFDWDQAYRKPITYDTLWQADTDPLPVVFPIVQGELSKQTGQQVSIAPNAGLDPVNYQNFAVTNDGVIFFFNPGELLPEAAGPTQVLVPRSAIDSMLA
B1 gave a Kd [1] of 134 nM and a Kd [2] of 193 nM.

B2: rMPT64: recombinant MPT64, produced in a bacterially expressed system as MPT63 (protein)
chain: B1 chain
With B2 the “binding partners identified by mass spectrometry” value [3] was “interacted with several host proteins, including hexokinase 2 (HK2, 102K), TBK1 (83K), protein kinase Cα (PKCα, 76K), TNF receptor associated factor 6 (TRAF6, 60K), and p38MAPK (38K)” and the “endogenous interaction with TBK1 and phosphorylated form” value (TBK1 [4]) was “phosphorylated TBK1 (S172) also interacted with rMPT64”.

B3: fluorescently labelled MPT63 (natural protein)
chain: AYPITGKLGSELTMTDTVGQVVLGWKVSDLKSSTAVIPGYPVAGQVWEATATVNAIRGSVTPAVSQFNARTADGINYRVLWQAAGPDTISGATIPQGEQSTGKIYFDVTGPSPTIVAMNNGMEDLLIWEP
B3 gave a Kd [5] of 345 nM and a Kd [2] of 178 nM.

B4: MPT63: secretory immunodominant antigen of MTB (protein)
chain: B3 chain
In the case of B4, the “binding to HLA-DR” value [6] is listed as “bind promiscuously to HLA-DR”, the macrophage cell death (macrophages) is listed as “induced cell death of macrophages” and the “region of MPT63 binding p47phox” value (p47phox [7]) is listed as “The C-terminal of MPT63 was associated with p47phox, particularly the 150–159 amino acids in the C-terminal domain of MPT63 were important for binding with p47phox. Additionally, E152, D153, and E158 in MPT63 were key amino acids”. For the same molecule, the Th1 cell reactivity (Th1 cell) was “induce a moderate Th1 cell reactivity”, the phagocytic activity [8] was “enhanced the phagocytic activity by upregulating the secretion of TNF-α and IL-6” and the “region of MPT protein binding TBK1” value (TBK1 [9]) was “the N-terminal of MPT63 bound with TBK1 and 48–56 peptide was essential for the interaction between MPT63 and TBK1. Specifically, 50–56 amino acids, except G53, seemed to be fundamental for binding”.

B5: rMPT63: recombinant MPT63, purified using a 6x His bacterially expressed system (protein)
chain: B3 chain
In the case of B5, the “binding partners identified by mass spectrometry” value [3] is reported as “included TANK-binding kinase (TBK1, 83K), receptor-interacting serine/threonine-protein kinase 1 (RIP1, 75K), RAC-alpha serine/threonine-protein kinase (AKT, 55K), Neutrophil cytosol factor 1 (p47phox, 45K), and p38 mitogen-activated protein kinase (p38MAPK, 38K)”, the “endogenous interaction with TBK1 and phosphorylated form” value (TBK1 [4]) is reported as “interacted with TBK1 and p47phox and, interestingly, with their phosphorylated forms as well” and the “endogenous interaction with p47phox and phosphorylated forms” value (p47phox [10]) is reported as “interacted with TBK1 and p47phox and, interestingly, with their phosphorylated forms as well (S345 and S359)”.
